Experimental data published in patent US20230192878A1 (published 2023).

Molecular target: T1, B-cell maturation antigen (BCMA) (human, UniProt Q02223 1-184)
T1 sequence (looked up): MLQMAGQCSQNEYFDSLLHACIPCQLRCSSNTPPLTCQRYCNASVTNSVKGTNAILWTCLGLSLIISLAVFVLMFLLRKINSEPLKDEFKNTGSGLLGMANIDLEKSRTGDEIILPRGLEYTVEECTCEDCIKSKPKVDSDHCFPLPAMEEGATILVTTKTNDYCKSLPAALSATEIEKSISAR
Experiment: cell-based or functional assay

B1: PF-06863135 (bispecific antibody, human IgG2)
heavy 1: EVQLVESGGGLVQPGGSLRLSCAASGFTFSDYYMTWVRQAPGKGLEWVAFIRNRARGYTSDHNPSVKGRFTISRDNAKNSLYLQMNSLRAEDTAVYYCARDRPSYYVLDYWGQGTTVTVSSASTKGPSVFPLAPCSRSTSESTAALGCLVKDYFPEPVTVSWNSGALTSGVHTFPAVLQSSGLYSLSSVVTVPSSNFGTQTYTCNVDHKPSNTKVDKTVERKCRVRCPRCPAPPVAGPSVFLFPPKPKDTLMISRTPEVTCVVVAVSHEDPEVQFNWYVDGVEVHNAKTKPREEQFNSTFRVVSVLTVVHQDWLNGKEYKCKVSNKGLPSSIEKTISKTKGQPREPQVYTLPPSREEMTKNQVSLTCLVKGFYPSDIAVEWESNGQPENNYKTTPPMLDSDGSFFLYSRLTVDKSRWQQGNVFSCSVMHEALHNHYTQKSLSLSPGK
light 1: not shown
heavy 2: EVQLLESGGGLVQPGGSLRLSCAASGFTFSSYPMSWVRQAPGKGLEWVSAIGGSGGSLPYADIVKGRFTISRDNSKNTLYLQMNSLRAEDTAVYYCARYWPMDIWGQGTLVTVSSASTKGPSVFPLAPCSRSTSESTAALGCLVKDYFPEPVTVSWNSGALTSGVHTFPAVLQSSGLYSLSSVVTVPSSNFGTQTYTCNVDHKPSNTKVDKTVERKCEVECPECPAPPVAGPSVFLFPPKPKDTLMISRTPEVTCVVVAVSHEDPEVQFNWYVDGVEVHNAKTKPREEQFNSTFRVVSVLTVVHQDWLNGKEYKCKVSNKGLPSSIEKTISKTKGQPREPQVYTLPPSREEMTKNQVSLTCEVKGFYPSDIAVEWESNGQPENNYKTTPPMLDSDGSFFLYSKLTVDKSRWQQGNVFSCSVMHEALHNHYTQKSLSLSPGK
light 2: EIVLTQSPGTLSLSPGERATLSCRASQSVSSSYLAWYQQKPGQAPRLLMYDASIRATGIPDRFSGSGSGTDFTLTISRLEPEDFAVYYCQQYQSWPLTFGQGTKVEIKRTVAAPSVFIFPPSDEQLKSGTASVVCLLNNFYPREAKVQWKVDNALQSGNSQESVTEQDSKDSTYSLSSTLTLSKADYEKHKVYACEVTHQGLSSPVTKSFNRGEC
- EC50 (nM) of cell viability, H929-Luc co-cultured with human CD3+ T cells, 72 hr, with GSI (nirogacestat): 0.0055 nM
- EC50 (nM) of cell viability, H929-Luc co-cultured with human CD3+ T cells, 72 hr, without GSI: 0.167 nM
- EC50 (nM) of cell viability, Molp8-Luc co-cultured with human CD3+ T cells, 72 hr, with GSI (nirogacestat): 0.0202 nM
- EC50 (nM) of cell viability, Molp8-Luc co-cultured with human CD3+ T cells, 72 hr, without GSI: 0.108 nM
- EC50 (nM) of cell viability, OPM2-Luc co-cultured with human CD3+ T cells, 72 hr, with GSI (nirogacestat): 0.0033 nM
- EC50 (nM) of cell viability, OPM2-Luc co-cultured with human CD3+ T cells, 72 hr, without GSI: 0.0528 nM
- EC50 (nM) of cell viability, RPMI8226-Luc co-cultured with human CD3+ T cells, 72 hr, with GSI (nirogacestat): 0.0017 nM
- EC50 (nM) of cell viability, RPMI8226-Luc co-cultured with human CD3+ T cells, 72 hr, without GSI: 0.0092 nM
